B1: EphA2 ligand-binding domain (receptor)
chain: EVVLLDFAAAGGELGWLTHPYGKGWDLMQNIMNDMPIYMYSVCNVMSGDQDNWLRTNWVYRGEAERIFIELKFTVRDCNSFPGGASSCKETFNLYYAESDLDYGTNFQKRLFTKIDTIAPDEITVSSDFEARHVKLNVEERSVGPLTRKGFYLAFQDIGACVALLSVRVYYKKC
notes: The crystallised domain; It forms dimers in the crystal; also called EphA2 LBD; EphA2-LBD
B2: EphB2 on PC-3 cells (receptor, human, UniProt P29323 19-1055, looked up)
chain: VEETLMDSTTATAELGWMVHPPSGWEEVSGYDENMNTIRTYQVCNVFESSQNNWLRTKFIRRRGAHRIHVEMKFSVRDCSSIPSVPGSCKETFNLYYYEADFDSATKTFPNWMENPWVKVDTIAADESFSQVDLGGRVMKINTEVRSFGPVSRSGFYLAFQDYGGCMSLIAVRVFYRKCPRIIQNGAIFQETLSGAESTSLVAARGSCIANAEEVDVPIKLYCNGDGEWLVPIGRCMCKAGFEAVENGTVCRGCPSGTFKANQGDEACTHCPINSRTTSEGATNCVCRNGYYRADLDPLDMPCTTIPSAPQAVISSVNETSLMLEWTPPRDSGGREDLVYNIICKSCGSGRGACTRCGDNVQYAPRQLGLTEPRIYISDLLAHTQYTFEIQAVNGVTDQSPFSPQFASVNITTNQAAPSAVSIMHQVSRTVDSITLSWSQPDQPNGVILDYELQYYEKELSEYNATAIKSPTNTVTVQGLKAGAIYVFQVRARTVAGYGRYSGKMYFQTMTEAEYQTSIQEKLPLIIGSSAAGLVFLIAVVVIAIVCNRRGFERADSEYTDKLQHYTSGHMTPGMKIYIDPFTYEDPNEAVREFAKEIDISCVKIEQVIGAGEFGEVCSGHLKLPGKREIFVAIKTLKSGYTEKQRRDFLSEASIMGQFDHPNVIHLEGVVTKSTPVMIITEFMENGSLDSFLRQNDGQFTVIQLVGMLRGIAAGMKYLADMNYVHRDLAARNILVNSNLVCKVSDFGLSRFLEDDTSDPTYTSALGGKIPIRWTAPEAIQYRKFTSASDVWSYGIVMWEVMSYGERPYWDMTNQDVINAIEQDYRLPPPMDCPSALHQLMLDCWQKDRNHRPKFGQIVNTLDKMIRNPNSLKAMAPLSSGINLPLLDRTIPDYTSFNTVDEWLEAIKMGQYKESFANAGFTSFDVVSQMMMEDILRVGVTLAGHQKKILNSIQVMRAQMNQIQSVEGQPLARRPRATGRTKRCQPRDVTKKTCNSNDGKKKGMGKKKTDPGRGREIQGIFFKEDSHKESNDCSCGG
notes: whole, on cells

Experiments:
crystal structure = target: the molecule itself; assay: crystal structure
[1] = target: the molecule itself; assay: cell surface cross-linking with DSP, immunoprecipitation, SDS-PAGE

| Protein | binding result (crystal structure) | binding result [1] |
| --- | --- | --- |
| B1 | binds |  |
| B2 |  | no binding |

— patent publication US20090247540A1 (published 2009)
